Results published in patent publication US20250121075A1, “ALPHA-FETOPROTEIN BIOCONJUGATES FOR DISEASE TREATMENT” (priority 2021, published 2025).
Read-outs that look alike come from different tables or passages of the source.

B1: AFP-ABZ981 conjugate: AFP bioconjugate releasing ABZ981, DPR 4.0, tested in the PK/BD study (conjugate, UniProt P02771 19-609, looked up)
Alpha-fetoprotein: RTLHRNEYGIASILDSYQCTAEISLADLATIFFAQFVQEATYKEVSKMVKDALTAIEKPTGDEQSSGCLENQLPAFLEELCHEKEILEKYGHSDCCSQSEEGRHNCFLAHKKPTPASIPLFQVPEPVTSCEAYEEDRETFMNKFIYEIARRHPFLYAPTILLWAARYDKIIPSCCKAENAVECFQTKAATVTKELRESSLLNQHACAVMKNFGTRTFQAITVTKLSQKFTKVNFTEIQKLVLDVAHVHEHCCRGDVLDCLQDGEKIMSYICSQQDTLSNKITECCKLTTLERGQCIIHAENDEKPEGLSPNLNRFLGDRDFNQFSSGEKNIFLASFVHEYSRRHPQLAVSVILRVAKGYQELLEKCFQTENPLECQDKGEEELQKYIQESQALAKRSCGLFQKLGEYYLQNAFLVAYTKKAPQLTSSELMAITRKMAATAATCCQLSEDKLLACGEGAADIIIGHLCIRHEMTPVNPGVGQCCTSSYANRRPCFSSLVVDETYVPPAFSDDKFIFHKDLCQAQGVALQTMKQEFLINLVKQKPQITEEQLEAVIADFSGLLEKCCQGQEQEVCFAEEGQKLISKTRAALGV
modifications: ABZ981-releasing toxin conjugate, DPR 4.0
B2: AFP-ABZ982 DPR 3.84: AFP-ABZ982 bioconjugate, average DPR 3.84 (conjugate, UniProt P02771 19-609, looked up)
Alpha-fetoprotein: RTLHRNEYGIASILDSYQCTAEISLADLATIFFAQFVQEATYKEVSKMVKDALTAIEKPTGDEQSSGCLENQLPAFLEELCHEKEILEKYGHSDCCSQSEEGRHNCFLAHKKPTPASIPLFQVPEPVTSCEAYEEDRETFMNKFIYEIARRHPFLYAPTILLWAARYDKIIPSCCKAENAVECFQTKAATVTKELRESSLLNQHACAVMKNFGTRTFQAITVTKLSQKFTKVNFTEIQKLVLDVAHVHEHCCRGDVLDCLQDGEKIMSYICSQQDTLSNKITECCKLTTLERGQCIIHAENDEKPEGLSPNLNRFLGDRDFNQFSSGEKNIFLASFVHEYSRRHPQLAVSVILRVAKGYQELLEKCFQTENPLECQDKGEEELQKYIQESQALAKRSCGLFQKLGEYYLQNAFLVAYTKKAPQLTSSELMAITRKMAATAATCCQLSEDKLLACGEGAADIIIGHLCIRHEMTPVNPGVGQCCTSSYANRRPCFSSLVVDETYVPPAFSDDKFIFHKDLCQAQGVALQTMKQEFLINLVKQKPQITEEQLEAVIADFSGLLEKCCQGQEQEVCFAEEGQKLISKTRAALGV
modifications: ABZ982 toxin conjugate, DPR 3.84
B3: AFP-ABZ1827 low DPR: AFP-ABZ1827 bioconjugate, average DPR 3.92 (conjugate, UniProt P02771 19-609, looked up)
Alpha-fetoprotein: RTLHRNEYGIASILDSYQCTAEISLADLATIFFAQFVQEATYKEVSKMVKDALTAIEKPTGDEQSSGCLENQLPAFLEELCHEKEILEKYGHSDCCSQSEEGRHNCFLAHKKPTPASIPLFQVPEPVTSCEAYEEDRETFMNKFIYEIARRHPFLYAPTILLWAARYDKIIPSCCKAENAVECFQTKAATVTKELRESSLLNQHACAVMKNFGTRTFQAITVTKLSQKFTKVNFTEIQKLVLDVAHVHEHCCRGDVLDCLQDGEKIMSYICSQQDTLSNKITECCKLTTLERGQCIIHAENDEKPEGLSPNLNRFLGDRDFNQFSSGEKNIFLASFVHEYSRRHPQLAVSVILRVAKGYQELLEKCFQTENPLECQDKGEEELQKYIQESQALAKRSCGLFQKLGEYYLQNAFLVAYTKKAPQLTSSELMAITRKMAATAATCCQLSEDKLLACGEGAADIIIGHLCIRHEMTPVNPGVGQCCTSSYANRRPCFSSLVVDETYVPPAFSDDKFIFHKDLCQAQGVALQTMKQEFLINLVKQKPQITEEQLEAVIADFSGLLEKCCQGQEQEVCFAEEGQKLISKTRAALGV
modifications: ABZ1827 toxin conjugate, DPR 3.92
B4: AFP-ABZ1827 DPR 5.88: AFP-ABZ1827 bioconjugate, average DPR 5.88 (conjugate, UniProt P02771 19-609, looked up)
Alpha-fetoprotein: RTLHRNEYGIASILDSYQCTAEISLADLATIFFAQFVQEATYKEVSKMVKDALTAIEKPTGDEQSSGCLENQLPAFLEELCHEKEILEKYGHSDCCSQSEEGRHNCFLAHKKPTPASIPLFQVPEPVTSCEAYEEDRETFMNKFIYEIARRHPFLYAPTILLWAARYDKIIPSCCKAENAVECFQTKAATVTKELRESSLLNQHACAVMKNFGTRTFQAITVTKLSQKFTKVNFTEIQKLVLDVAHVHEHCCRGDVLDCLQDGEKIMSYICSQQDTLSNKITECCKLTTLERGQCIIHAENDEKPEGLSPNLNRFLGDRDFNQFSSGEKNIFLASFVHEYSRRHPQLAVSVILRVAKGYQELLEKCFQTENPLECQDKGEEELQKYIQESQALAKRSCGLFQKLGEYYLQNAFLVAYTKKAPQLTSSELMAITRKMAATAATCCQLSEDKLLACGEGAADIIIGHLCIRHEMTPVNPGVGQCCTSSYANRRPCFSSLVVDETYVPPAFSDDKFIFHKDLCQAQGVALQTMKQEFLINLVKQKPQITEEQLEAVIADFSGLLEKCCQGQEQEVCFAEEGQKLISKTRAALGV
modifications: ABZ1827 toxin conjugate, DPR 5.88
B5: AFP-ABZ982 DPR 2.50: AFP-ABZ982 bioconjugate, average DPR 2.50 (conjugate, UniProt P02771 19-609, looked up)
Alpha-fetoprotein: RTLHRNEYGIASILDSYQCTAEISLADLATIFFAQFVQEATYKEVSKMVKDALTAIEKPTGDEQSSGCLENQLPAFLEELCHEKEILEKYGHSDCCSQSEEGRHNCFLAHKKPTPASIPLFQVPEPVTSCEAYEEDRETFMNKFIYEIARRHPFLYAPTILLWAARYDKIIPSCCKAENAVECFQTKAATVTKELRESSLLNQHACAVMKNFGTRTFQAITVTKLSQKFTKVNFTEIQKLVLDVAHVHEHCCRGDVLDCLQDGEKIMSYICSQQDTLSNKITECCKLTTLERGQCIIHAENDEKPEGLSPNLNRFLGDRDFNQFSSGEKNIFLASFVHEYSRRHPQLAVSVILRVAKGYQELLEKCFQTENPLECQDKGEEELQKYIQESQALAKRSCGLFQKLGEYYLQNAFLVAYTKKAPQLTSSELMAITRKMAATAATCCQLSEDKLLACGEGAADIIIGHLCIRHEMTPVNPGVGQCCTSSYANRRPCFSSLVVDETYVPPAFSDDKFIFHKDLCQAQGVALQTMKQEFLINLVKQKPQITEEQLEAVIADFSGLLEKCCQGQEQEVCFAEEGQKLISKTRAALGV
modifications: ABZ982 toxin conjugate, DPR 2.50
B6: AFP-ABZ1827 DPR 4.40: AFP-ABZ1827 bioconjugate, average DPR 4.40 (conjugate, UniProt P02771 19-609, looked up)
Alpha-fetoprotein: RTLHRNEYGIASILDSYQCTAEISLADLATIFFAQFVQEATYKEVSKMVKDALTAIEKPTGDEQSSGCLENQLPAFLEELCHEKEILEKYGHSDCCSQSEEGRHNCFLAHKKPTPASIPLFQVPEPVTSCEAYEEDRETFMNKFIYEIARRHPFLYAPTILLWAARYDKIIPSCCKAENAVECFQTKAATVTKELRESSLLNQHACAVMKNFGTRTFQAITVTKLSQKFTKVNFTEIQKLVLDVAHVHEHCCRGDVLDCLQDGEKIMSYICSQQDTLSNKITECCKLTTLERGQCIIHAENDEKPEGLSPNLNRFLGDRDFNQFSSGEKNIFLASFVHEYSRRHPQLAVSVILRVAKGYQELLEKCFQTENPLECQDKGEEELQKYIQESQALAKRSCGLFQKLGEYYLQNAFLVAYTKKAPQLTSSELMAITRKMAATAATCCQLSEDKLLACGEGAADIIIGHLCIRHEMTPVNPGVGQCCTSSYANRRPCFSSLVVDETYVPPAFSDDKFIFHKDLCQAQGVALQTMKQEFLINLVKQKPQITEEQLEAVIADFSGLLEKCCQGQEQEVCFAEEGQKLISKTRAALGV
modifications: ABZ1827 toxin conjugate, DPR 4.40

Assays:
SKOV3 cells = assay: Cytotoxicity of AFP-ABZ982 and AFP-ABZ1827 bioconjugates, 4 day incubation; type: cell-based, human; details: read-out: Average IC50 SKOV3 cells (n = 1), 4 days
Procedure: (§1) Bioconjugates containing ABZ981 with two different release functionalities (AFP-ABZ982 and AFP-ABZ1827) were subsequently prepared at DPRs of 2.5 to 6.3. Cells were incubated for 4 days in the presence of the compounds over an 8-point concentration range, with each concentration tested in triplicate. Two experiments performed using freshly thawed U937 cells gave similar results to U937 cells maintained in culture.

U937 cells = assay: as above; type: cell-based, human; details: 4 days
Procedure: as §1

COLO-205 cells = assay: CellTiter-Glo cell viability, 72 hours; type: cell-based, human
Procedure: Turning to Table 5, two bioconjugates of each of AFP-ABZ982 and AFP-ABZ1827 (4 in total) were prepared at DPRs of approximately 4 (“low DPR”) and 6 (“high DPR”) for efficacy testing in vivo in the COLO-205 human tumor xenograft model. Potency in the COLO-205 cell line prior to implantation was assessed. Briefly, 96 well plates were seeded with COLO-205 cells either at 5,000 or 2,500 cells per well in a total volume to 50 μL per well. Plates were incubated overnight then treated with the bioconjugate at 37° C. for 72 hours and then a CellTiter-Glo assay was performed to measure cell viability. Samples were run in triplicate.

[1] = 25 mg/kg single IV, COLO-205 tumor
Procedure: Bioconjugates containing DM4, DM1 or ABZ981 were resynthesized at a DPR of approximately 4 (Table 3) for comparative testing in a pharmacokinetic/biodistribution (PK/BD) study in mice subcutaneously implanted with COLO-205 tumor xenografts.
The volumes of administration were adjusted to deliver the same amount of bioconjugate (25 mg/kg) to each group of animals as a single IV injection into the tail vein. Blood samples were taken at 0.25 and 1 hours post-injection and blood and tissue samples were taken at 4, 8 and 24 hours to evaluate the pharmacokinetics and biodistribution of the bioconjugates (n=3 per timepoint). A commercially available ELISA kit was used to measure AFP levels and levels of free maytansine and its metabolites were measured by LC/MS.

[2] = Maximum tolerated dose in healthy mice; type: in vivo; details: Q1D×5 for 2 weeks, clinical observations and AST/ALT
Procedure: The four ABZ981-containing bioconjugates above were resynthesized and formulated in a 10 mM HEPES buffer, 5% sucrose at pH 7.5 (Table 6). Prior to testing the efficacy in tumor-bearing mice, the maximum tolerated dose (MTD) was determined for each bioconjugate in healthy mice, employing the same dosing regimen used for the efficacy study (Q1D×5 for 2 weeks) at doses of 0, 5, 10, 20 and 40 mg/kg. MTD was based on clinical observations made daily during the dosing period and elevations of liver enzymes (AST/ALT) determined at the end of treatment. […] In general, a bioconjugate with a higher DPR which carries a larger amount of toxin would be expected to have a lower MTD.

[3] = freshly thawed cells, read-out: Average IC50 U937 freshly thawed cells (n = 2)
[4] = read-out: Average IC50 U937 cultured cells (n = 1), cells maintained in culture

| Molecule | IC50 (SKOV3 cells) | IC50 (U937 cells; [3]) | IC50 (U937 cells; [4]) | other results |
| --- | --- | --- | --- | --- |
| COc1cc2cc(c1-c1ccc(NC(=O)CCC(C)S)cc1)N(C)C(=O)C[C@H](OC(=O)C(C)C)[C@]1(C)O[C@H]1[C@H](C)[C@@H]1C[C@@](O)(NC(=O)O1)[C@H](OC)/C=C/C=C(\C)C2 (stereo partly drawn) [ABZ-981] |  |  |  | IC50 (SKOV3 cells; Homo sapiens, SK-OV-3, 96 h): 5.53 nM; IC50 (U937 cells; Homo sapiens, U-937, 96 h, read-out: Average IC50 U937 cultured cells (n = 1), cells maintained in culture): 3.06 nM; IC50 (U937 cells; Homo sapiens, U-937, 96 h, freshly thawed cells, read-out: Average IC50 U937 freshly thawed cells (n = 2)): 2.84 nM; IC50 (COLO-205 cells; Homo sapiens): 6.1 nM |
| B1 |  |  |  | Peak free toxin levels normalized to AFP (toxin release in tumors) [1]: 18 % of the AFP levels in tumor; toxin level in tumor (free maytansine plus metabolites), times higher than DM1 conjugate [1]: approximately 3 times; toxin level in tumor (free maytansine plus metabolites), times higher than DM4 conjugate [1]: ~22 times |
| B2 | 35.5 nM | 5.29 nM | 4.49 nM |  |
| B3 |  |  |  | IC50 (COLO-205 cells): 17.2 nM; Dose (MTD) [2]: 10 mg/kg |
| B4 | 35.6 nM | 2.93 nM | 2.04 nM |  |
| B5 | 56.1 nM | 5.25 nM | 5.22 nM |  |
| B6 | 58.8 nM | 5.98 nM | 7.47 nM |  |
